Source: paper PMC4657913

Molecular target: RHDV VPg fused to the VN155 (I152L) fragment for BiFC (Rabbit hemorrhagic disease virus (RHDV) strain CHA/JX/97)
Test: split reporter (BiFC, NanoBiT); BiFC in RK-13 cells, pVPg-VN and peIF4E-VC; green fluorescence quantified by flow cytometry 48 h after transfection

## eIF4E fused to the VC155 fragment for BiFC (from UniProt P29338 1-217) (natural protein)
  BiFC signal-to-noise (ratio between the treatment and control groups): > 3
